This passage reports MFI and % inhibition results from patent US20120171195A1.

The target in assay [1] is HLA-B*0801 (human) (UniProt P01889). The experiment in a line: Luminex beads; MAb 1/1600; PBS only.
Another assay addresses HLA-B*2705 (human) (UniProt P01889). Put plainly: Luminex beads; MAb 1/1600; PBS only.
The next assay deals with HLA-B*2708 (human) (UniProt P01889). The experiment in a line: Luminex beads; MAb 1/1600; PBS only.
The target in a further assay is HLA-B*4101 (human) (UniProt P01889). The experiment in a line: Luminex beads; MAb 1/1600; PBS only.
Assay [2] concerns the target HLA-B*4501 (human). The experiment in a line: Luminex beads; MAb 1/1600; PBS only.
Another assay deals with HLA-B*4601 (human) (UniProt P01889). The experiment in a line: Luminex beads; MAb 1/1600; PBS only.
In another assay the target is HLA-B*4701 (human). The experiment in a line: Luminex beads; MAb 1/1600; PBS only.
A further assay addresses HLA-B*5101 (human). The experiment in a line: Luminex beads; MAb 1/1600; PBS only.
For a further assay, the target named is HLA-B*5201 (human). Put plainly: Luminex beads; MAb 1/1600; PBS only.
The target of a further assay is HLA-B*5801 (human). Put plainly: Luminex beads; MAb 1/1600; PBS only.
The next assay concerns the target HLA-B*8201 (human) (UniProt P01889). The experiment in a line: Luminex beads; MAb 1/1600; PBS only.
For the next assay, the target named is HLA-Cw*0202 (human). Put plainly: Luminex beads; MAb 1/1600; PBS only.
For assay [3], the target named is HLA-Cw*0303 (human). The experiment in a line: Luminex beads; MAb 1/1600; PBS only.
For assay [4], the target named is HLA-Cw*0304 (human). The experiment in a line: Luminex beads; MAb 1/1600; PBS only.
The target of the next assay is HLA-Cw*1502 (human). Put plainly: Luminex beads; MAb 1/1600; PBS only.
A further assay has as its target HLA-Cw*1601 (human) (UniProt P10321). Put plainly: Luminex beads; MAb 1/1600; PBS only.
For assay [5], the target named is HLA-B*0801 (human) (UniProt P01889). The experiment in a line: Luminex beads; MAb 1/100; competitor rHLA-E.
Another assay deals with HLA-B*1513 (human). Put plainly: Luminex beads; MAb 1/100; competitor rHLA-E.
Another assay concerns the target HLA-B*3701 (human). The experiment in a line: Luminex beads; MAb 1/100; competitor rHLA-E.
In another assay the target is HLA-B*4001 (human) (UniProt P01889). Put plainly: Luminex beads; MAb 1/100; competitor rHLA-E.
Assay [6] concerns the target HLA-B*4501 (human). Put plainly: Luminex beads; MAb 1/100; competitor rHLA-E.
In a further assay the target is HLA-B*4801 (human) (UniProt P01889). The experiment in a line: Luminex beads; MAb 1/100; competitor rHLA-E.
In assay [7] the target is HLA-Cw*0303 (human). The experiment in a line: Luminex beads; MAb 1/100; competitor rHLA-E.
Assay [8] addresses HLA-Cw*0304 (human). The experiment in a line: Luminex beads; MAb 1/100; competitor rHLA-E.
The target of the next assay is HLA-Cw*0501 (human). The experiment in a line: Luminex beads; MAb 1/100; competitor rHLA-E.
The target in a further assay is HLA-Cw*0702 (human) (UniProt P10321). The experiment in a line: Luminex beads; MAb 1/100; competitor rHLA-E.
A further assay has as its target HLA-A*2403 (A24) (human). Put plainly: Luminex single-antigen beads; MEM-E/02 1/600; serum Mi127 1/100.
The target of another assay is HLA-A*2901 (A29) (human) (UniProt P04439). The description is as above.
A further assay deals with HLA-A*3002 (A30) (human) (UniProt P04439). The description is as above.
Another assay has as its target HLA-A*3201 (A32) (human). Described as above.
For the next assay, the target named is HLA-A*3301 (A33) (human). The description is as above.
The target in a further assay is HLA-B*0801 (B8) (human) (UniProt P01889). Described as above.
For another assay, the target named is HLA-B*1301 (B13) (human). The description is as above.
Another assay deals with HLA-B*2708 (B27) (human) (UniProt P01889). The description is as above.
The next assay addresses HLA-B*5102 (B51) (human). Described as above.
In the next assay the target is HLA-B*5901 (B59) (human). Described as above.
Assay [9] has as its target HLA-Cw*0304 (human). The assay is described as above.
Assay [10] deals with HLA-Cw*0401 (Cw4) (human). The assay is described as above.
Assay [11] concerns the target HLA-Cw*0801 (Cw8) (human) (UniProt P10321). Described as above.
Assay [12] concerns the target HLA-Cw*1203 (Cw12) (human) (UniProt P10321). The assay is described as above.
Assay [13] has as its target HLA-Cw*1502 (Cw15) (human). The description is as above.
For assay [14], the target named is HLA-Cw*1802 (Cw18) (human) (UniProt P10321). Described as above.

Regarding “murine monoclonal antibody (MAb) MEM-E/02”, the MFI with HLA-B*0801 (human) [1] was found to be 262 MFI; with HLA-B*2705 (human), 191 MFI; with HLA-B*2708 (human) it was 396 MFI; in the assay with HLA-B*4101 (human), 645 MFI; with HLA-B*4501 (human) [2], 808 MFI; in the assay with HLA-B*4601 (human), 375 MFI. For the same substance, the MFI stood at 804 MFI with HLA-B*4701 (human); 347 MFI with HLA-B*5101 (human); 537 MFI with HLA-B*5201 (human); 524 MFI in the assay with HLA-B*5801 (human); 417 MFI with HLA-B*8201 (human); 785 MFI with HLA-Cw*0202 (human). In addition, the MFI with HLA-Cw*0303 (human) [3] turned out to be 530 MFI; in the assay with HLA-Cw*0304 (human) [4] it was 512 MFI; with HLA-Cw*1502 (human), 485 MFI; with HLA-Cw*1601 (human), 524 MFI; in the assay with HLA-B*0801 (human) [5] it was 219 MFI; with HLA-B*1513 (human), 256 MFI. The MFI in the assay with HLA-B*3701 (human) amounted to 80 MFI; in the assay with HLA-B*4001 (human) it was 235 MFI; in the assay with HLA-B*4501 (human) [6] it was 75 MFI; with HLA-B*4801 (human) it was 224 MFI; with HLA-Cw*0303 (human) [7], 139 MFI; in the assay with HLA-Cw*0304 (human) [8], 181 MFI. Also, the MFI with HLA-Cw*0501 (human) was 201 MFI; in the assay with HLA-Cw*0702 (human), 220 MFI.
As a reminder, the % inhibition is the percentage by which the read-out fell short of the control. Turning to murine monoclonal antibody MAb MEM-E/02, the % inhibition with HLA-A*2403 (A24) (human) was 36%; with HLA-B*5901 (B59) (human), 8%. The MFI in the assay with HLA-A*2901 (A29) (human) was under 500 MFI; with HLA-A*3002 (A30) (human) it was under 500 MFI; in the assay with HLA-A*3201 (A32) (human) it was under 500 MFI; with HLA-A*3301 (A33) (human), 3170 MFI; with HLA-B*0801 (B8) (human), under 500 MFI; with HLA-B*1301 (B13) (human), under 500 MFI. Also, the MFI with HLA-B*2708 (B27) (human) was 2430 MFI; with HLA-B*5102 (B51) (human), 2520 MFI; with HLA-B*5901 (B59) (human) it was 848 MFI; with HLA-Cw*0304 (human) [9], under 500 MFI; in assay [10], under 500 MFI; in assay [11], under 500 MFI. Also, the MFI in assay [12], in assay [13] and in assay [14] was under 500 MFI throughout.
